Assay results: patent US20200282035A1 (MILTENYI BIOTEC B V, published 2020)

What was measured:
CD318 = molecular target: T1, CD318 (human, UniProt Q9H5V8 30-836); test: antibody used for staining of human pancreatic cancer cells (flow cytometry, immunohistochemistry; Example 1); told in words only
T1 construct: whole, on cells
T1 sequence (looked up): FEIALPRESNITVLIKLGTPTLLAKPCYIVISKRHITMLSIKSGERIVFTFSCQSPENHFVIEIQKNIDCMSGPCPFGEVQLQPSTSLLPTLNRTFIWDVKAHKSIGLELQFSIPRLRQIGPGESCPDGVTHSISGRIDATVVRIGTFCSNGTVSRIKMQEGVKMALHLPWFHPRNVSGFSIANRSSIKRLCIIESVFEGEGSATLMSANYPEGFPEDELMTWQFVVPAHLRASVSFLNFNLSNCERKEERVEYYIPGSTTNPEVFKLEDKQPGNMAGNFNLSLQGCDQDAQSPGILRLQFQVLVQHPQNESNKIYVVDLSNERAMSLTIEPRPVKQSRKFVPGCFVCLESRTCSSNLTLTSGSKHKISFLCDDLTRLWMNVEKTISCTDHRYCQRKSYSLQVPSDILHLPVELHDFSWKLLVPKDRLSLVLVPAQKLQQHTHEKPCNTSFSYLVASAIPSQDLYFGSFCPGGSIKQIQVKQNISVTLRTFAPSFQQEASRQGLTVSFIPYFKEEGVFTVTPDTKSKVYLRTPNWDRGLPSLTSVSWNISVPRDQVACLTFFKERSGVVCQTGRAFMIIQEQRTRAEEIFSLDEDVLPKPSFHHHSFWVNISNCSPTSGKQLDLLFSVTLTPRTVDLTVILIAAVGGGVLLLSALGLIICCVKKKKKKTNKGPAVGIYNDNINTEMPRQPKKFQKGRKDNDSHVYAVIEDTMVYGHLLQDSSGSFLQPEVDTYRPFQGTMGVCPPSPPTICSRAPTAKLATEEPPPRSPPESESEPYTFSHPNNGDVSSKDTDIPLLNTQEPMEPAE

TSPAN8 = molecular target: T2, TSPAN8 (human, UniProt P19075 1-237); test: as above
T2 construct: whole, on cells
T2 sequence (looked up): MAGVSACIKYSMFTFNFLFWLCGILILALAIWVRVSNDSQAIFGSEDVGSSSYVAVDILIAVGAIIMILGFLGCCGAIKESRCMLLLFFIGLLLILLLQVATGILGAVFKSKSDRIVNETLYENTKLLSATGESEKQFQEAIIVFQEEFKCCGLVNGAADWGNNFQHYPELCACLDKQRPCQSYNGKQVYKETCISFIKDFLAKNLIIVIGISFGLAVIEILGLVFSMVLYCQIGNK

| Binder | binding result (CD318) | binding result (TSPAN8) |
| --- | --- | --- |
| CD318 specific antibody (antibody, V domains shown, also called CD318 VH) VH: EVQLQQSGAELVRPGALVKLSCKASGFNIKDYYIHWVKQRPEQGLEWIGWIDPENGHTIYDPKFQGKASITADTSSNTAYLQLSSLTSEDTAVYYCARLTGTTYAMDYWGQGTSVTVSS VL: DIVMTQSHKFMSTSVGDRVSITCKASQDVSTAVAWYQQKSGQSPKLLIYWASTRHTGVPDRFTGSGSGTDYTLTISSVQAEDLALYYCQQHYSTPYTFGGGTKLEIK | binds | – |
| TSPAN8 specific antibody (antibody, V domains shown, also called TSPAN8 VH) VH: EVKLLESGGGLVQPGGSMRLSCAASGFTFTDFYMNWIRQPAGKAPEWLGFIRNKASGYTTEYNPSVKGRFTISRDNTQNMLYLQMNTLRAEDTATYYCARAHSYYGYDYFDYWGQGVMVTVSS VL: DIQMTQSPASLSASLEEIVTITCQASQDIGNWLSWYQQKPGKSPQLLIYGATSLADGVPSRFSGSRSGTQYSLKISRLQVEDIRIYYCLQAYSAPWTFGGGTKLELK | – | binds |
